Reference: paper PMC4027165, “SAXS analysis of the tRNA-modifying enzyme complex MnmE/MnmG reveals a novel interaction mode and GTP-induced oligomerization” (Nucleic Acids Research, 2014)
Residue numbers refer to the chain shown, from its start.

How the values were obtained:
[1] = molecular target: T1, MnmE (Y169A, D175A and F176A) (Escherichia coli, UniProt P25522 1-454, Y169A | D175A | F176A); experiment: ITC; MnmE mutant in syringe, MnmG in cell
T1 sequence: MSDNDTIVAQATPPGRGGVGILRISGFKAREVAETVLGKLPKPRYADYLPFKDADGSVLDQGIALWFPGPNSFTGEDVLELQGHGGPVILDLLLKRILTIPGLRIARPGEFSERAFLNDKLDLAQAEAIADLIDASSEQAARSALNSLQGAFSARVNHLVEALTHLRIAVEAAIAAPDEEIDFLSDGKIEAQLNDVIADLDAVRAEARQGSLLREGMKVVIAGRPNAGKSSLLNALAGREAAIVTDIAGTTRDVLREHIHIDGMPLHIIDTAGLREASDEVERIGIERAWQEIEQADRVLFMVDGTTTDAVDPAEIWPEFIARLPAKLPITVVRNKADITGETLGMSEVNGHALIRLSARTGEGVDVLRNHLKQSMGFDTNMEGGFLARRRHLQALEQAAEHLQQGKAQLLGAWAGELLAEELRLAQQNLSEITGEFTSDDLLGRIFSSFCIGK

[2] = molecular target: T2, MnmE (Y169A, D175A and F176A) with additional S153A (Escherichia coli, UniProt P25522 1-454, S153A | Y169A | D175A | F176A); experiment: ITC; MnmE mutant in syringe, MnmG in cell
T2 sequence: T1 sequence with S153A

MnmE (T434A and D440A) [3] = molecular target: T3, MnmE (T434A and D440A) (Escherichia coli, UniProt P25522 1-454, T434A | D440A); experiment: ITC; MnmE mutant in syringe, MnmG in cell
T3 sequence: T1 sequence with A169Y, A175D, A176F, T434A, D440A

[4] = molecular target: T1, MnmE (Y169A, D175A and F176A); experiment: ITC; MnmG in syringe, MnmE mutant in cell
[5] = molecular target: T2, MnmE (Y169A, D175A and F176A) with …; experiment: ITC; MnmG in syringe, MnmE mutant in cell
MnmE (T434A and D440A) [6] = molecular target: T3, MnmE (T434A and D440A); experiment: ITC; MnmG in syringe, MnmE mutant in cell
[7] = molecular target: the molecule itself; experiment: SEC-MALS; E. coli MnmG alone, at all concentrations used (Supplementary Figure S2(D))
[8] = molecular target: T4, MnmE from Escherichia coli, wild type (Escherichia coli, UniProt P25522 1-454); experiment: ITC; 278 K; 20 mM Hepes pH 7.5, 150 mM NaCl, 5 mM MgCl2, 2 mM BME, 1 mM FAD; 15 uM in the cell, 300 uM in the syringe; titrated in both directions; one site model; apparent; details: both partners purified
T4 construct: tRNA modification GTPase MnmE (formerly TrmE), Escherichia coli; open reading frame cloned in a pET20 vector; Homodimer of about 50-kDa subunits; Used nucleotide-free, with GDP-AlFx or with GppNHp depending on the experiment; also called TrmE; MnmE wt
T4 sequence (looked up): T1 sequence with A169Y, A175D, A176F

B1: MnmG from Escherichia coli, wild type (enzyme, UniProt P0A6U3 1-629, looked up)
chain: MFYPDPFDVIIIGGGHAGTEAAMAAARMGQQTLLLTHNIDTLGQMSCNPAIGGIGKGHLVKEVDALGGLMAKAIDQAGIQFRILNASKGPAVRATRAQADRVLYRQAVRTALENQPNLMIFQQAVEDLIVENDRVVGAVTQMGLKFRAKAVVLTVGTFLDGKIHIGLDNYSGGRAGDPPSIPLSRRLRELPLRVGRLKTGTPPRIDARTIDFSVLAQQHGDNPMPVFSFMGNASQHPQQVPCYITHTNEKTHDVIRSNLDRSPMYAGVIEGVGPRYCPSIEDKVMRFADRNQHQIFLEPEGLTSNEIYPNGISTSLPFDVQMQIVRSMQGMENAKIVRPGYAIEYDFFDPRDLKPTLESKFIQGLFFAGQINGTTGYEEAAAQGLLAGLNAARLSADKEGWAPARSQAYLGVLVDDLCTLGTKEPYRMFTSRAEYRLMLREDNADLRLTEIGRELGLVDDERWARFNEKLENIERERQRLKSTWVTPSAEAAAEVNAHLTAPLSREASGEDLLRRPEMTYEKLTTLTPFAPALTDEQAAEQVEIQVKYEGYIARQQDEIEKQLRNENTLLPATLDYRQVSGLSNEVIAKLNDHKPASIGQASRISGVTPAAISILLVWLKKQGMLRRSA
notes: tRNA uridine 5-carboxymethylaminomethyl modification enzyme MnmG (formerly GidA), Escherichia coli; open reading frame cloned in a pET14b vector; Homodimer of 70-kDa subunits; also called GidA; MnmG wt
Work on B1 yielded a Kd [1] of 12 µM, a Kd [2] of 12.9 µM and a Kd (MnmE (T434A and D440A) [3]) of 11.2 µM. For the same binder, the Kd [4] was 11.4 µM, the Kd [5] was 29.9 µM and the Kd (MnmE (T434A and D440A) [6]) was 9.4 µM. For the same binder, the “stoichiometry N” value [7] was 2 and the “stoichiometry N” value [8] was 1.
